Results: patent US20060134122A1, “Peptides of syndecan-1 for inhibition of cancer” (priority 2004, published 2006)

B1: GST-mS4ED: recombinant GST fusion of mouse syndecan-4 ectodomain, specificity control (protein)
chain: ESIRETEVIDPQDLLEGRYFSGALPDDEDAGGSDDFELSGSGDLDDTEEPRPFPEVIEPLVPLDNHIPENAQPGIRVPSEPKELEENEVIPKRAPSDVGDDMSNKVSMSSTAQGSNIFERTE
modifications: left off: a dimerising Fc or GST
notes: recombinant GST fusion of mouse syndecan-4 ectodomain, specificity control
B2: GST-mS1ED: recombinant mouse syndecan-1 ectodomain expressed as a fusion protein with GST (protein)
chain: QIVAVNVPPEDQDGSGDDSDNFSGSGTGALPDTLSRQTPSTWKDVWLLTATPTAPEPTSSNTETAFTSVLPAGEKPEEGEPVLHVEAEPGFTARDKEKEVTTRPRETVQLPITQRASTVRVTTAQAAVTSHPHGGMQPGLHETSAPTAPGQPDHQPPRVEGGGTSVIKEVVEDGTANQLPAGEGSGEQDFTFETSGENTAVAAVEPGLRNQPPVDEGATGASQSLLDRKEVLG
modifications: left off: a dimerising Fc or GST
notes: recombinant mouse syndecan-1 ectodomain expressed as a fusion protein with GST

Tests used:
B82L fibroblasts = experiment: B82L cell attachment and spreading; format: cell-based, mouse; conditions: for cell attachment and spreading on VN: 5 μg/mL VN, S1ED 1-30 μM, GST and GST-mS4ED 30 μM
Excerpt: FIGS. 11A-F—Downregulation of mouse Sdc-1 expression by siRNA blocks αvβ5-dependent cell attachment and spreading on VN. FACS analysis for (FIG. 11A) mouse syndecan-1 (mAb 281.2), (FIG. 11B) αv integrin subunit (mAb H9.2B8), (FIG. 11C) mouse Syndecan-4 (mAb KY8.2), (FIG. 11D) human syndecan-1 (mAb B-B4) and (FIG. 11E) FcR^ecto-hS1 chimera (FITC-conjugated hIgG) expression against isotype IgG controls (red-fill) in vector^NEO (FIGS. 11A-C), human syndecan-1 (FIG. 11D) and FcR^ecto-hS1 (FIG. 11E) expressing B82L cells 48 h after transfection with either 600 nM control (Control) or mouse syndecan-1-specific siRNA (siRNA). (FIG. 11F) B82L^NEO empty vector-transfected control cells and B82L cells expressing human syndecan-1 or the FcR^ecto-hS1 chimera were transfected with control or mouse syndecan-1-specific siRNA and seeded on wells coated with either 5 μg/mL VN alone or a mixed substratum of VN plus 60 μg/mL of antibody directed against mouse syndecan-1 (281.2), human syndecan-1 (B-B4) or the FcR^ecto-hS1 chimera (hIgG). Cells were incubated at 37° C. for 2 h, fixed, and stained with rhodamine-conjugated phalloidin.
FIGS. 12A-B—B82L cell spreading on VN is blocked by recombinant Scd-1ED. (FIG. 12A) B82L fibroblasts were plated on 5 μg/mL VN in the absence of other treatment, or in the presence of 30 μM GST, 1-30 μM GST-mS1ED or 30 μM GST-mS4ED (inset), then fixed and stained with rhodamine-phalloidin for visualization. (FIG. 12B) Quantification of cell adhesion in triplicate samples (±S.E.) plated either with no additions, or concentrations of GST-mS1ED ranging from 0-30 μM. […]
The failure of NEO cells to engage the mixed substratum is indicative of the efficient blockade of mouse Sdc-1 expression by the siRNA. It is unlikely that the mouse Sdc-1-siRNA treatment has any non-specific cellular effects since spreading on VN is specifically rescued by the expression of full-length human Sdc-1 (hS1, FIG. 11F). Spreading of the B82L-hS1 cells is indistinguishable from parental cells. However, spreading on VN is not recovered in cells expressing the FcR^ecto-hS1 chimera—a construct in which the syndecan's ectodomain is replaced by the ectodomain of the human Fcγ receptor Ia (FcR^ecto-hS1)—regardless of whether the cells are plated on VN alone, or VN supplemented with 60 μg/mL of hIgG to engage the FcR^ecto-hS1 construct.
Recombinant Sdc-1 ectodomain competitively blocks αvβ5 integin activity. To test whether soluble Sdc-1 ectodomain will compete with the syndecan activation of the αvβ5 integrin, B82L cells were plated on 5 μg/mL VN in the presence of a recombinant GST fusion protein containing either the ectodomain of mouse Sdc-1 (GST-mS1ED) or human Sdc-1 (GST-hS1ED; data not shown).

[1] = tested on: MDA-MB-435 human mammary carcinoma cells; experiment: Cell spreading assay, MDA-MB-435; format: cell-based; conditions: 2 h, GST-mS1ED 20 μM; for cell spreading on VN: 10 μg/mL VN, LM609 30 μg/mL
Description: FIGS. 2A-C—Sdc-1 adhesion-mediated cell spreading correlates with αvβ3 integrin. expression and activity. (FIG. 2A) FACS analysis of αvβ3 integrin expression (mAb LM609) in human mammary carcinoma cells against an IgG isotype control. (FIG. 2B) Depicted on split panels are phalloidin-stained MDA-MB-435 (upper half) and MCF-7 (lower half) cells 2 h after plating on wells coated with mAb B-B4 in plating medium alone or medium containing either 30 μg/mL mAb LM609, 1 μg/mL mAb 13 or 20 μM GST-mS1ED. Bar, 50 μm. (FIG. 2C) Untreated MDA-MB-435, MDA-MB-231 and MCF-7 cells (columns 1 and 4) and cells pretreated in suspension with 1 μg/mL mAb 13 (columns 2 and 3) were seeded on wells coated with either mAb B-B4 or COL I in plating medium alone (columns 1, 2 and 4) or medium containing 20 μM GST-mS1ED (column 3). Cells were incubated at 37° C. for 2 h, fixed, permeabilized and stained with WOW1 and an Alexa 488-conjugated secondary. Panel insets are corresponding phase contrast pictures. Bar, 20 μm.
FIG. 3—MDA-MB-435, but not MCF-7, human carcinoma cells display functional coupling of Sdc-1 and αvβ3 integrins on VN. Depicted are phalloidin-stained cells 2 h after plating on wells coated with 10 μg/mL VN (upper half) or FN (lower half) in plating medium alone or medium containing either 30 μg/mL mAb LM609, 25 μg/mL mAb 13, 20 μM GST-mS1ED or -mS4ED. Bar, 50 μm.
Sdc-1 adhesion-mediated cell spreading correlates with αvβ3 integrin expression and activity. To test whether the αvβ3 integrin's dependence on Sdc-1 extends to other carcinoma cells, the inventors screened a panel of human carcinoma cells with mAb LM609 using FACS analysis. […] To test the collaboration between Sdc-1 and αvβ3 integrin when cells are adherent via Sdc-1, MDA-MB-435 and MCF-7 cells were plated on wells coated with hS1-specific mAb B-B4. While αvβ3-positive MDA-MB-435 cells spread on this antibody substratum, their spreading is blocked (similar to results obtained in the MDA-MB-231; Beauvais and Rapraeger, 2003) by treatment with either mAb LM609 (added either before plating or 30 min after plating, when cells have already begun to spread) or GST-mS1ED protein (which is not recognized by mAb B-B4).
MDA-MB-435, but not MCF-7, human carcinoma cells display functional coupling of Sdc-1 and αvβ3 integrin on VN. To test whether activation of αvβ3 integrin activation on matrix is also functionally coupled to Sdc-1, MDA-MB-435 and MCF-7 cells were plated on either VN or FN (FIG. 3). MDA-MB-435 cells spread on VN and require αvβ3 integrins for this activity as spreading is blocked by mAb LM609. […]

Molecule | cell attachment and spreading on VN (B82L fibroblasts) | cell spreading on VN [1] | lowest concentration tested at which competition occurs (B82L fibroblasts; cells plated on 5 μg/mL VN) [µM] | cell spreading on FN ([1]; 10 μg/mL FN, mAb 13 25 μg/mL) | cell spreading on mAb B-B4 ([1]; LM609 30 μg/mL (before or 30 min after plating))
B1 | without effect | no effect |  |  | 
B2 | increasing blockade | fail to spread | 1 | retain their ability to spread | blocked
